Data taken from patent US20240376216A1 (NINGBO T MAXIMUM BIOPHARMACEUTICALS, published 2024).

Molecular target: T1, IL13Rα2 on U251-LG target cells (UniProt Q14627 27-380, limits assumed)
T1 sequence (looked up): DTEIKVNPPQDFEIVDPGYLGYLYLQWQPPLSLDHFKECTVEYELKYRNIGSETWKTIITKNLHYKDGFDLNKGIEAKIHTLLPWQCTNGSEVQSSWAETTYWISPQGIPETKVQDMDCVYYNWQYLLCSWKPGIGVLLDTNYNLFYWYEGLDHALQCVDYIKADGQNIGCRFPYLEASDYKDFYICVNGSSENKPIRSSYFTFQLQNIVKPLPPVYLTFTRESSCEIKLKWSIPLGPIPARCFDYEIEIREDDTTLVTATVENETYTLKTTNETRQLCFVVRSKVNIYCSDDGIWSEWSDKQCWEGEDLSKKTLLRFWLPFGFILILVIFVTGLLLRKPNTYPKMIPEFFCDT
Experiment: cell-based or functional assay

B1: anti-IL13Rα2 CAR VLVH (murine) (other)
chain: DIVMTQSHKFISTSVGDRVSITCKASQDVGTAVAWYQQIPGQSPKLLIYSASYRSTGIPDRFTGSGSGTDFSFIISSVQAEDLALYYCQHHYSAPWTFGGGTTLDIKGGGGSGGGGSGGGGSEVQLVESGGDLVRPGGSLQLSCAASGFTFSRNGMSWVRQTPDRRLEWVATVSSGGSYIYYADSVKGRFTISRDNARNTLYLQMSSLKSEDTAMYYCARQGTTALATRFFDVWGAGTTVTVSSFVPVFLPAKPTTTPAPRPPTPAPTIASQPLSLRPEACRPAAGGAVHTRGLDFACDIYIWAPLAGTCGVLLLSLVITLYCNHRNKRGRKKLLYIFKQPFMRPVQTTQEEDGCSCRFPEEEEGGCELRVKFSRSADAPAYQQGQNQLYNELNLGRREEYDVLDKRRGRDPEMGGKPRRKNPQEGLYNELQKDKMAEAYSEIGMKGERRRGKGHDGLYQGLSTATKDTYDALHMQALPPR
killing efficiency (lysis of target cells by luciferase activity, 24 h co-culture, effector-to-target ratio 2:1): > 90%
